Among the data in publication PMC12062136 are concurrent in situ splicing in a four-strain E. coli co-culture: mCherry fluorescence (580 nm excitation-610 nm emission) of the purified protein mixture values, retold here.

In the assay the target is mCherry^N-gp418^N chimeric protein.

For gp418^C-mCherry^C chimeric protein, the concurrent in situ splicing in a four-strain E. coli co-culture: mCherry fluorescence (580 nm excitation-610 nm emission) of the purified protein mixture came to 35000 a.u.
